# Molecular target: the molecule itself
# Experiment: SEC
protein,measurement,value
EBOV VP35 fused with maltose-binding protein at its N-terminal (MBP–VP35) (natural protein) MTTRTKGRGHTAATTQNDRMPGPELSGWISEQLMTGRIPVSDIFCDIENNPGLCYASQMQQTKPNPKTRNSQTQTDPICNHSFEEVVQTLASLATVVQQQTIASESLEQRITSLENGLKPVYDMAKTISSLNRVCAEMVAKYDLLVMTTGRATATAAATEAYWAEHGQPPPGPSLYEESAIRGKIESRDETVPQSVREAFNNLNSTTSLTEENFGKPDISAKDLRNIMYDHLPGFGTAFHQLVQVICKLGKDSNSLDIIHAEFQASLAEGDSPQCALIQITKRVPIFQDAAPPVIHIRSRGDIPRACQKSLRPVPPSPKIDRGWVCVFQLQDGKTLGLKI,binding result,binds

# — PMC6582406 (Nucleic Acids Research, 2019)
